Test results reported in patent US20180030151A1 (MOGAM INSTITUTE FOR BIOMEDICAL RESEARCH, published 2018).
Where two headings read alike, the source gives them in different places.

How the values were obtained:
Assay in all cases: cell-based or functional assay
[1] = target: T1, recombinant human TFPI (tissue factor pathway inhibitor) (human, UniProt P10646 29-304)
[2] = target: TFPI in FVIII-deficient plasma (sample dilution)
[3] = target: T1, recombinant human TFPI (tissue factor …); remark: listed apart in the source
[4] = target: T1, recombinant human TFPI (tissue factor …); remark: listed apart in the source
[5] = target: T1, recombinant human TFPI (tissue factor …); remark: listed apart in the source
[6] = target: T1, recombinant human TFPI (tissue factor …); remark: listed apart in the source
[7] = target: T1, recombinant human TFPI (tissue factor …); remark: listed apart in the source
[8] = target: T1, recombinant human TFPI (tissue factor …); remark: listed apart in the source
[9] = target: T1, recombinant human TFPI (tissue factor …); remark: listed apart in the source
[10] = target: T1, recombinant human TFPI (tissue factor …); remark: listed apart in the source
[11] = target: T1, recombinant human TFPI (tissue factor …); remark: listed apart in the source
[12] = target: T1, recombinant human TFPI (tissue factor …); remark: listed apart in the source

effect of inhibiting TFPI, FXa activity assay, Ab 10 nM [1]: ~84% | effect of inhibiting TFPI, FXa activity assay, Ab 20 nM [1]: ~86% | ETP vs negative control, thrombin generation assay, Ab 2.5 nM [2]: ~309% | thrombin peak vs blank, thrombin generation assay, Ab 2.5 nM [2]: ~401% | A405, TF/FVIIa/FX complex assay, Ab 1.56 nM [3]: 0.143 | A405, TF/FVIIa/FX complex assay, Ab 3.13 nM [3]: 0.152 | A405, TF/FVIIa/FX complex assay, Ab 6.25 nM [3]: 0.168 | A405, TF/FVIIa/FX complex assay, Ab 12.5 nM [3]: 0.228 | A405, TF/FVIIa/FX complex assay, Ab 25 nM [3]: 0.795 | A405, TF/FVIIa/FX complex assay, Ab 50 nM [3]: 0.947 | A405, TF/FVIIa/FX complex assay, Ab 100 nM [3]: 0.951 | % of Normalized, TF/FVIIa/FX complex assay, Ab 1.56 nM [4]: 15.6% | % of Normalized, TF/FVIIa/FX complex assay, Ab 3.13 nM [4]: 16.5% | % of Normalized, TF/FVIIa/FX complex assay, Ab 6.25 nM [4]: 18.2% | % of Normalized, TF/FVIIa/FX complex assay, Ab 12.5 nM [4]: 24.8% | % of Normalized, TF/FVIIa/FX complex assay, Ab 25 nM [4]: 86.5% | % of Normalized, TF/FVIIa/FX complex assay, Ab 50 nM [4]: 103% | % of Normalized, TF/FVIIa/FX complex assay, Ab 100 nM [4]: 104% | A405, TF/FVIIa/FX complex assay, Ab 1.56 nM [5]: 0.153 | A405, TF/FVIIa/FX complex assay, Ab 3.13 nM [5]: 0.167 | A405, TF/FVIIa/FX complex assay, Ab 6.25 nM [5]: 0.19 | A405, TF/FVIIa/FX complex assay, Ab 12.5 nM [5]: 0.259 | A405, TF/FVIIa/FX complex assay, Ab 25 nM [5]: 0.923 | A405, TF/FVIIa/FX complex assay, Ab 50 nM [5]: 0.905 | A405, TF/FVIIa/FX complex assay, Ab 100 nM [5]: 0.935 | % of Normalized, TF/FVIIa/FX complex assay, Ab 1.56 nM [6]: 16% | % of Normalized, TF/FVIIa/FX complex assay, Ab 3.13 nM [6]: 17.5% | % of Normalized, TF/FVIIa/FX complex assay, Ab 6.25 nM [6]: 19.9% | % of Normalized, TF/FVIIa/FX complex assay, Ab 12.5 nM [6]: 27.1% | % of Normalized, TF/FVIIa/FX complex assay, Ab 25 nM [6]: 96.6% | % of Normalized, TF/FVIIa/FX complex assay, Ab 50 nM [6]: 94.8% | % of Normalized, TF/FVIIa/FX complex assay, Ab 100 nM [6]: 98% | A405, TF/FVIIa/FX complex assay, Ab 1.56 nM [7]: 0.135 | A405, TF/FVIIa/FX complex assay, Ab 3.13 nM [7]: 0.16 | A405, TF/FVIIa/FX complex assay, Ab 6.25 nM [7]: 0.185 | A405, TF/FVIIa/FX complex assay, Ab 12.5 nM [7]: 0.29 | A405, TF/FVIIa/FX complex assay, Ab 25 nM [7]: 0.914 | A405, TF/FVIIa/FX complex assay, Ab 50 nM [7]: 0.938 | A405, TF/FVIIa/FX complex assay, Ab 100 nM [7]: 0.939 | % of Normalized, TF/FVIIa/FX complex assay, Ab 1.56 nM [8]: 14.7% | % of Normalized, TF/FVIIa/FX complex assay, Ab 3.13 nM [8]: 17.5% | % of Normalized, TF/FVIIa/FX complex assay, Ab 6.25 nM [8]: 20.2% | % of Normalized, TF/FVIIa/FX complex assay, Ab 12.5 nM [8]: 31.6% | % of Normalized, TF/FVIIa/FX complex assay, Ab 25 nM [8]: 99.8% | % of Normalized, TF/FVIIa/FX complex assay, Ab 50 nM [8]: 102% | % of Normalized, TF/FVIIa/FX complex assay, Ab 100 nM [8]: 103% | A405, TF/FVIIa/FX complex assay (FX 5 nM), Ab 1.56 nM [9]: 0.05 | A405, TF/FVIIa/FX complex assay (FX 5 nM), Ab 3.13 nM [9]: 0.048 | A405, TF/FVIIa/FX complex assay (FX 5 nM), Ab 6.25 nM [9]: 0.056 | A405, TF/FVIIa/FX complex assay (FX 5 nM), Ab 12.5 nM [9]: 0.079 | A405, TF/FVIIa/FX complex assay (FX 5 nM), Ab 25 nM [9]: 0.216 | A405, TF/FVIIa/FX complex assay (FX 5 nM), Ab 50 nM [9]: 0.652 | A405, TF/FVIIa/FX complex assay (FX 5 nM), Ab 100 nM [9]: 0.81 | % of Normalized, TF/FVIIa/FX complex assay (FX 5 nM), Ab 1.56 nM [10]: 6.2% | % of Normalized, TF/FVIIa/FX complex assay (FX 5 nM), Ab 3.13 nM [10]: 5.9% | % of Normalized, TF/FVIIa/FX complex assay (FX 5 nM), Ab 6.25 nM [10]: 6.9% | % of Normalized, TF/FVIIa/FX complex assay (FX 5 nM), Ab 12.5 nM [10]: 9.7% | % of Normalized, TF/FVIIa/FX complex assay (FX 5 nM), Ab 25 nM [10]: 26.6% | % of Normalized, TF/FVIIa/FX complex assay (FX 5 nM), Ab 50 nM [10]: 80.5% | % of Normalized, TF/FVIIa/FX complex assay (FX 5 nM), Ab 100 nM [10]: 100% | A405, TF/FVIIa/FX complex assay, Ab 1.56 nM [11]: 0.041 | A405, TF/FVIIa/FX complex assay, Ab 3.13 nM [11]: 0.051 | A405, TF/FVIIa/FX complex assay, Ab 6.25 nM [11]: 0.071 | A405, TF/FVIIa/FX complex assay, Ab 12.5 nM [11]: 0.088 | A405, TF/FVIIa/FX complex assay, Ab 25 nM [11]: 0.371 | A405, TF/FVIIa/FX complex assay, Ab 50 nM [11]: 0.681 | A405, TF/FVIIa/FX complex assay, Ab 100 nM [11]: 0.846 | % of Normalized, TF/FVIIa/FX complex assay, Ab 1.56 nM [12]: 4.8%
B1: clone 1023 (antibody, V domains shown)
VH: EVQLVESGGGLVKPGGSLRLSCAASGFTFSSYAMNWVRQAPGKGLEWVGTITTGGSYTYYADSVDGRFTISRDNAKNSLYLQMNSLRAEDTAVYYCARQDGNFLMDYWGQGTLVTVSS
VL: DVVMTQTPLSLPVTLGQPASISCKSSQSLLDIDGKTYLNWLQQRPGQSPKRLIYLVSKLDSGVPDRFTGSGSGTDFTLKISRVEAEDVGVYYCWQGTHFPFTFGQGTKVEIKR
notes: scFv on yeast at selection; human IgG4/kappa IgG as purified
